Measured values reported in patent US20230272029A1, “CO-AGONISTS AT GLP-1 AND GIP RECEPTORS SUITABLE FOR ORAL DELIVERY” (Novo Nordisk A/S, priority 2020, published 2023).
Starred links: 1 amine or outer side, 2 acyl side, 3 side chain; linkers in the order of their positions; H or OH if unused. Non-standard residues stand in square brackets, D forms with d. Groups on a side chain read outwards from the residue. No end group written: not given here. *: point of attachment. C20 diacid = O=C(O)CCCCCCCCCCCCCCCCCCC(=O)*; C18 diacid = O=C(O)CCCCCCCCCCCCCCCCC(=O)*; γGlu = O=C(O)[C@H](CCC(=O)[*:2])N[*:1]; εLys = N[C@@H](CCCCN[*:1])C(=O)[*:2]; Aib = CC(C)(N)C(=O)O

Key:
[1] = molecular target: human GLP-1 receptor (human, UniProt P43220 24-463); test: cell-based or functional assay
[2] = molecular target: T1, human GIP receptor (human, UniProt P48546 22-466); test: cell-based or functional assay
T1 sequence (looked up): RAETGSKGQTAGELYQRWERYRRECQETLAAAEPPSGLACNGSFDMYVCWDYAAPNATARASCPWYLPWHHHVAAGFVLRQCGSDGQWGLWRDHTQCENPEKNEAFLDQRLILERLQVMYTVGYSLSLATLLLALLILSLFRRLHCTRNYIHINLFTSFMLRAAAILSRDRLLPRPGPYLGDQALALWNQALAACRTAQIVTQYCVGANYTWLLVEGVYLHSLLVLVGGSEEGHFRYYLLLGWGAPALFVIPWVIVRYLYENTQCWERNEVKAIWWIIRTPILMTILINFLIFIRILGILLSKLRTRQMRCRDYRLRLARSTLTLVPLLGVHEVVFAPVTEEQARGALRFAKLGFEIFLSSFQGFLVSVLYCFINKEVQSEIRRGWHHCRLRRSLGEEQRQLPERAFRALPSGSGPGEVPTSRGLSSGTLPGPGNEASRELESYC

Binder | hGLP-1R, CRE Luc 0% HSA EC50 (pM) [1] [pM] | hGLP-1R, CRE Luc 1% HSA EC50 (pM) [1] [pM] | hGIPR, CRE Luc 0% HSA EC50 (pM) [2] [pM] | hGIPR, CRE Luc 1% HSA EC50 (pM) [2] [pM]
Y[Aib]EGTFTSDYSIYLEK([εLys-εLys-γGlu-C20 diacid])QAAQEFVNWLLAGGPSSGAPPPS-NH2 (N-terminus assumed; SMILES CC[C@H](C)[C@H](NC(=O)[C@H](CO)NC(=O)[C@H](Cc1ccc(O)cc1)NC(=O)[C@H](CC(=O)O)NC(=O)[C@H](CO)NC(=O)[C@@H](NC(=O)[C@H](Cc1ccccc1)NC(=O)[C@@H](NC(=O)CNC(=O)[C@H](CCC(=O)O)NC(=O)C(C)(C)NC(=O)[C@@H](N)Cc1ccc(O)cc1)[C@@H](C)O)[C@@H](C)O)C(=O)N[C@@H](Cc1ccc(O)cc1)C(=O)N[C@@H](CC(C)C)C(=O)N[C@@H](CCC(=O)O)C(=O)N[C@@H](CCCCNC(=O)[C@@H](N)CCCCNC(=O)[C@@H](N)CCCCNC(=O)CC[C@H](NC(=O)CCCCCCCCCCCCCCCCCCC(=O)O)C(=O)O)C(=O)N[C@@H](CCC(N)=O)C(=O)N[C@@H](C)C(=O)N[C@@H](C)C(=O)N[C@@H](CCC(N)=O)C(=O)N[C@@H](CCC(=O)O)C(=O)N[C@@H](Cc1ccccc1)C(=O)N[C@H](C(=O)N[C@@H](CC(N)=O)C(=O)N[C@@H](Cc1c[nH]c2ccccc12)C(=O)N[C@@H](CC(C)C)C(=O)N[C@@H](CC(C)C)C(=O)N[C@@H](C)C(=O)NCC(=O)NCC(=O)N1CCC[C@H]1C(=O)N[C@@H](CO)C(=O)N[C@@H](CO)C(=O)NCC(=O)N[C@@H](C)C(=O)N1CCC[C@H]1C(=O)N1CCC[C@H]1C(=O)N1CCC[C@H]1C(=O)N[C@@H](CO)C(N)=O)C(C)C) [Compound No. 1] | 7.8 | 1660 | 2.8 | 172
Y[Aib]EGTFTSDYSIYLEEQAARK([εLys-εLys-γGlu-C18 diacid])FINWLLAGGPSSGAPPPS-OH (N-terminus assumed; SMILES CC[C@H](C)[C@H](NC(=O)[C@H](Cc1ccccc1)NC(=O)[C@H](CCCCNC(=O)[C@@H](N)CCCCNC(=O)[C@@H](N)CCCCNC(=O)CC[C@H](NC(=O)CCCCCCCCCCCCCCCCC(=O)O)C(=O)O)NC(=O)[C@H](CCCNC(=N)N)NC(=O)[C@H](C)NC(=O)[C@H](C)NC(=O)[C@H](CCC(N)=O)NC(=O)[C@H](CCC(=O)O)NC(=O)[C@H](CCC(=O)O)NC(=O)[C@H](CC(C)C)NC(=O)[C@H](Cc1ccc(O)cc1)NC(=O)[C@@H](NC(=O)[C@H](CO)NC(=O)[C@H](Cc1ccc(O)cc1)NC(=O)[C@H](CC(=O)O)NC(=O)[C@H](CO)NC(=O)[C@@H](NC(=O)[C@H](Cc1ccccc1)NC(=O)[C@@H](NC(=O)CNC(=O)[C@H](CCC(=O)O)NC(=O)C(C)(C)NC(=O)[C@@H](N)Cc1ccc(O)cc1)[C@@H](C)O)[C@@H](C)O)[C@@H](C)CC)C(=O)N[C@@H](CC(N)=O)C(=O)N[C@@H](Cc1c[nH]c2ccccc12)C(=O)N[C@@H](CC(C)C)C(=O)N[C@@H](CC(C)C)C(=O)N[C@@H](C)C(=O)NCC(=O)NCC(=O)N1CCC[C@H]1C(=O)N[C@@H](CO)C(=O)N[C@@H](CO)C(=O)NCC(=O)N[C@@H](C)C(=O)N1CCC[C@H]1C(=O)N1CCC[C@H]1C(=O)N1CCC[C@H]1C(=O)N[C@@H](CO)C(=O)O) [Compound No. 37] | 2.7 | 94.6 | 11.2 | 298
Y[Aib]EGTFTSDYSIYLEK([εLys-εLys-γGlu-C18 diacid])QAAREFIEWLLRGGPESGAPPPS-OH (N-terminus assumed; SMILES CC[C@H](C)[C@H](NC(=O)[C@H](Cc1ccccc1)NC(=O)[C@H](CCC(=O)O)NC(=O)[C@H](CCCNC(=N)N)NC(=O)[C@H](C)NC(=O)[C@H](C)NC(=O)[C@H](CCC(N)=O)NC(=O)[C@H](CCCCNC(=O)[C@@H](N)CCCCNC(=O)[C@@H](N)CCCCNC(=O)CC[C@H](NC(=O)CCCCCCCCCCCCCCCCC(=O)O)C(=O)O)NC(=O)[C@H](CCC(=O)O)NC(=O)[C@H](CC(C)C)NC(=O)[C@H](Cc1ccc(O)cc1)NC(=O)[C@@H](NC(=O)[C@H](CO)NC(=O)[C@H](Cc1ccc(O)cc1)NC(=O)[C@H](CC(=O)O)NC(=O)[C@H](CO)NC(=O)[C@@H](NC(=O)[C@H](Cc1ccccc1)NC(=O)[C@@H](NC(=O)CNC(=O)[C@H](CCC(=O)O)NC(=O)C(C)(C)NC(=O)[C@@H](N)Cc1ccc(O)cc1)[C@@H](C)O)[C@@H](C)O)[C@@H](C)CC)C(=O)N[C@@H](CCC(=O)O)C(=O)N[C@@H](Cc1c[nH]c2ccccc12)C(=O)N[C@@H](CC(C)C)C(=O)N[C@@H](CC(C)C)C(=O)N[C@@H](CCCNC(=N)N)C(=O)NCC(=O)NCC(=O)N1CCC[C@H]1C(=O)N[C@@H](CCC(=O)O)C(=O)N[C@@H](CO)C(=O)NCC(=O)N[C@@H](C)C(=O)N1CCC[C@H]1C(=O)N1CCC[C@H]1C(=O)N1CCC[C@H]1C(=O)N[C@@H](CO)C(=O)O) [Compound No. 13] | 7.4 | 204 | 13.9 | 257
Y[Aib]EGTFTSDYSIYLEK([εLys-εLys-γGlu-C18 diacid])QAAREFINWLLAGGPSSGAPPPS-OH (N-terminus assumed; SMILES CC[C@H](C)[C@H](NC(=O)[C@H](Cc1ccccc1)NC(=O)[C@H](CCC(=O)O)NC(=O)[C@H](CCCNC(=N)N)NC(=O)[C@H](C)NC(=O)[C@H](C)NC(=O)[C@H](CCC(N)=O)NC(=O)[C@H](CCCCNC(=O)[C@@H](N)CCCCNC(=O)[C@@H](N)CCCCNC(=O)CC[C@H](NC(=O)CCCCCCCCCCCCCCCCC(=O)O)C(=O)O)NC(=O)[C@H](CCC(=O)O)NC(=O)[C@H](CC(C)C)NC(=O)[C@H](Cc1ccc(O)cc1)NC(=O)[C@@H](NC(=O)[C@H](CO)NC(=O)[C@H](Cc1ccc(O)cc1)NC(=O)[C@H](CC(=O)O)NC(=O)[C@H](CO)NC(=O)[C@@H](NC(=O)[C@H](Cc1ccccc1)NC(=O)[C@@H](NC(=O)CNC(=O)[C@H](CCC(=O)O)NC(=O)C(C)(C)NC(=O)[C@@H](N)Cc1ccc(O)cc1)[C@@H](C)O)[C@@H](C)O)[C@@H](C)CC)C(=O)N[C@@H](CC(N)=O)C(=O)N[C@@H](Cc1c[nH]c2ccccc12)C(=O)N[C@@H](CC(C)C)C(=O)N[C@@H](CC(C)C)C(=O)N[C@@H](C)C(=O)NCC(=O)NCC(=O)N1CCC[C@H]1C(=O)N[C@@H](CO)C(=O)N[C@@H](CO)C(=O)NCC(=O)N[C@@H](C)C(=O)N1CCC[C@H]1C(=O)N1CCC[C@H]1C(=O)N1CCC[C@H]1C(=O)N[C@@H](CO)C(=O)O) [Compound No. 11] | 3.3 | 132 | 9.9 | 450
Y[Aib]EGTFTSDYSIYLEK([εLys-εLys-γGlu-C18 diacid])QAAREFIEWLLRGGPSSGAPPPS-OH (N-terminus assumed; SMILES CC[C@H](C)[C@H](NC(=O)[C@H](Cc1ccccc1)NC(=O)[C@H](CCC(=O)O)NC(=O)[C@H](CCCNC(=N)N)NC(=O)[C@H](C)NC(=O)[C@H](C)NC(=O)[C@H](CCC(N)=O)NC(=O)[C@H](CCCCNC(=O)[C@@H](N)CCCCNC(=O)[C@@H](N)CCCCNC(=O)CC[C@H](NC(=O)CCCCCCCCCCCCCCCCC(=O)O)C(=O)O)NC(=O)[C@H](CCC(=O)O)NC(=O)[C@H](CC(C)C)NC(=O)[C@H](Cc1ccc(O)cc1)NC(=O)[C@@H](NC(=O)[C@H](CO)NC(=O)[C@H](Cc1ccc(O)cc1)NC(=O)[C@H](CC(=O)O)NC(=O)[C@H](CO)NC(=O)[C@@H](NC(=O)[C@H](Cc1ccccc1)NC(=O)[C@@H](NC(=O)CNC(=O)[C@H](CCC(=O)O)NC(=O)C(C)(C)NC(=O)[C@@H](N)Cc1ccc(O)cc1)[C@@H](C)O)[C@@H](C)O)[C@@H](C)CC)C(=O)N[C@@H](CCC(=O)O)C(=O)N[C@@H](Cc1c[nH]c2ccccc12)C(=O)N[C@@H](CC(C)C)C(=O)N[C@@H](CC(C)C)C(=O)N[C@@H](CCCNC(=N)N)C(=O)NCC(=O)NCC(=O)N1CCC[C@H]1C(=O)N[C@@H](CO)C(=O)N[C@@H](CO)C(=O)NCC(=O)N[C@@H](C)C(=O)N1CCC[C@H]1C(=O)N1CCC[C@H]1C(=O)N1CCC[C@H]1C(=O)N[C@@H](CO)C(=O)O) [Compound No. 12] | 4 | 54.4 | 9 | 71.5
